The target in one series is T1, XenA (Pseudomonas putida, UniProt Q9R9V9).
T1 construct: purified recombinant enzyme (plasmid pEK102 carries XenA WT)
As to the kind of experiment: specific activity, absorbance at […] nm. Type of series: biochemical. The conditions noted are these: 0.2 mM reduced cofactor, 5 mM ketoisophorone, 200 mM potassium phosphate pH 7.5, 37 °C.

Substrate in series [1]: NC(=O)C1=CN([C@@H]2O[C@H](COP(=O)(O)OP(=O)(O)OC[C@H]3O[C@@H](n4cnc5c(N)ncnc54)[C@H](O)[C@@H]3O)[C@@H](O)[C@H]2O)C=CC1
As to the kind of experiment: purified protein. Type of series: biochemical, Lactiplantibacillus pentosus. As to conditions: 50 mM Tris-HCl pH 7.0, 37 °C, apparent.

Substrate in series [2]: NC(=O)C1=CN([C@@H]2O[C@H](COP(=O)(O)OP(=O)(O)OC[C@H]3O[C@@H](n4cnc5c(N)ncnc54)[C@H](OP(=O)(O)O)[C@@H]3O)[C@@H](O)[C@H]2O)C=CC1
Briefly: purified protein. The conditions noted are these: 50 mM Tris-HCl pH 7.0, 37 °C, apparent. The series is classed as biochemical, Lactiplantibacillus pentosus.

We go through four molecules from article PMC9701214, “Orthogonal glycolytic pathway enables directed evolution of noncanonical cofactor oxidase” (Nature Communications, 2022).

T1 sequence (Q9R9V9 entry or part of it): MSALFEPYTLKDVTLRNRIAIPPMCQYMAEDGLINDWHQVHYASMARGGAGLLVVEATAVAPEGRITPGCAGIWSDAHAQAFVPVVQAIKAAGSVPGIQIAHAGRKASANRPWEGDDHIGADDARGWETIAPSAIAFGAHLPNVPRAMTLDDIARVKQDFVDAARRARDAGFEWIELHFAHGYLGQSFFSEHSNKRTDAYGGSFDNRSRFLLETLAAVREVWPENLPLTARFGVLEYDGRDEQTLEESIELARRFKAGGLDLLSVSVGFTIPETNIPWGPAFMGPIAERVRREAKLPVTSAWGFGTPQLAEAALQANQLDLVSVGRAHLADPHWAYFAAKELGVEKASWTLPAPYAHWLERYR

Turning to `NC(=O)C1=CN([C@@H]2O[C@H](COP(=O)(O)O)[C@@H](O)[C@H]2O)C=CC1` [NMNH], the “specific activity, absorbance at 340 nm” value on XenA is listed as “Specific activities of redox partners toward NMNH”.

B1: Lp Nox (Lactiplantibacillus pentosus; D177W/G178E/I158S/V240L) (protein)
chain: MKVIVIGCTHAGTAAVNQILASNPETDVTIYERNDNVSFLSCGIALYLGGEVADPQGLFYSSPEQLAKLGANVHMQHDVTDVDTENHEITVTDLKTGESKKDYYDKLVVTTGSWPVIPPIDGIDSPNVYLCKNWTHAQSLWEAAKPAKRVIVIGGGYSGTELVEAYQKQGKEVTLIWELPRILNKYLDKGFTDRVEKDFVDHGIKMALNQMVKGFSDDGKEVTVKTDKGSYTADMAILCLGFRPNTSLLKGKVDMNPNGSIKTNDYMQTSDPDIYGAGDSVAVHYNPTKKDAYIPLATNAVRQGTLVGLNIFKPTRKYMGTQSTSGLMLFGKTIVSSGMTLEHAQAEKVPAEAVTFEDNYRPEFMPTTKPVLMQLVYNPETREILGAQFMSEHDVSQSANVISVMIQNHNTIDDLGFVDMFFQPIYDRPFNYLNLLGQAAIAHAAEKVTE
notes: recombinant from E. coli BL21(DE3), pQElac vector (pLS504), purified on His-Spin column (His-tag implied); FAD added at lysis
As a reminder, the Km is the concentration of substrate that gives half-maximal velocity. As usually defined, the kcat is the number of substrate molecules converted per active site and unit of time at saturation. The kcat/Km is the second-order rate constant that governs catalysis at low substrate concentration. Regarding B1, in the series “purified protein [1]”, the Michaelis-Menten constant (Km) is 1900 ± 40 µM, the kcat is 31 ± 1 s⁻¹ and the kcat/Km was found to be 17000 ± 200 M⁻¹ s⁻¹. In “purified protein [2]”, the Km was determined as 1100 ± 100 µM, the kcat was found to be 28 ± 1 s⁻¹ and the kcat/Km was 26000 ± 1000 M⁻¹ s⁻¹.

B2: Lp Nox (Lactiplantibacillus pentosus; D177W/I158S/V240L) (protein)
chain: MKVIVIGCTHAGTAAVNQILASNPETDVTIYERNDNVSFLSCGIALYLGGEVADPQGLFYSSPEQLAKLGANVHMQHDVTDVDTENHEITVTDLKTGESKKDYYDKLVVTTGSWPVIPPIDGIDSPNVYLCKNWTHAQSLWEAAKPAKRVIVIGGGYSGTELVEAYQKQGKEVTLIWGLPRILNKYLDKGFTDRVEKDFVDHGIKMALNQMVKGFSDDGKEVTVKTDKGSYTADMAILCLGFRPNTSLLKGKVDMNPNGSIKTNDYMQTSDPDIYGAGDSVAVHYNPTKKDAYIPLATNAVRQGTLVGLNIFKPTRKYMGTQSTSGLMLFGKTIVSSGMTLEHAQAEKVPAEAVTFEDNYRPEFMPTTKPVLMQLVYNPETREILGAQFMSEHDVSQSANVISVMIQNHNTIDDLGFVDMFFQPIYDRPFNYLNLLGQAAIAHAAEKVTE
notes: as for B1
Consider B2, for which, in the series “purified protein [1]”, the Km came to 1700 ± 200 µM, the kcat was found to be 47 ± 4 s⁻¹ and the kcat/Km came to 28000 ± 1000 M⁻¹ s⁻¹. Besides, in the series “purified protein [2]”, the Km amounted to 890 ± 40 µM, the kcat was found to be 27 ± 2 s⁻¹ and the kcat/Km is 31000 ± 1000 M⁻¹ s⁻¹.

B3: Lp Nox (Lactiplantibacillus pentosus) (protein)
chain: MKVIVIGCTHAGTAAVNQILASNPETDVTIYERNDNVSFLSCGIALYLGGEVADPQGLFYSSPEQLAKLGANVHMQHDVTDVDTENHEITVTDLKTGESKKDYYDKLVVTTGSWPVIPPIDGIDSPNVYLCKNWTHAQSLWEAAKPAKRVIVIGGGYIGTELVEAYQKQGKEVTLIDGLPRILNKYLDKGFTDRVEKDFVDHGIKMALNQMVKGFSDDGKEVTVKTDKGSYTADMAILCVGFRPNTSLLKGKVDMNPNGSIKTNDYMQTSDPDIYGAGDSVAVHYNPTKKDAYIPLATNAVRQGTLVGLNIFKPTRKYMGTQSTSGLMLFGKTIVSSGMTLEHAQAEKVPAEAVTFEDNYRPEFMPTTKPVLMQLVYNPETREILGAQFMSEHDVSQSANVISVMIQNHNTIDDLGFVDMFFQPIYDRPFNYLNLLGQAAIAHAAEKVTE
notes: as for B1
For B3, in the series “purified protein [1]”, the Km turned out to be 25 ± 1 µM, the kcat came to 21 ± 0.3 s⁻¹ and the kcat/Km was found to be 840000 ± 10000 M⁻¹ s⁻¹. Moreover, in the series “purified protein [2]”, the Km stood at 1900 ± 200 µM, the kcat came out at 18 ± 2 s⁻¹ and the kcat/Km amounted to 9300 ± 200 M⁻¹ s⁻¹.
